In patent US20060257938A1, “Method of screening for drugs that block ligand binding to a lipid binding protein” (priority 2005, published 2006):

Tests used:
Type in all cases: binding
[1] = Probe fluorescence ratio response to oleic acid relative to ADIFAB2; details: for DR/DR OA: response relative to ADIFAB2; for ΔR/DRAΔ2 OA: Table 5
How it was run: (§1)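 Each fatty acid's response was expressed relative to ADIFAB2, the rI-FABP-L72A probe, as ΔR/ΔRreference. ΔR is the change in the background-corrected two-wavelength intensity ratio R=Fλ1/Fλ2 from its analyte-free baseline R0. Emission was read near about 420-480 nm for unbound and about 495-580 nm for FFA-bound probe.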

[2] = Probe fluorescence ratio response to linolenic acid relative to ADIFAB2; details: for DR/DR LNA: response relative to ADIFAB2; for ΔR/DRAΔ2 LNA: Table 5
How it was run: as §1

[3] = Probe fluorescence ratio response to arachidonic acid relative to ADIFAB2; details: for DR/DR AA: arachidonic acid, response relative to ADIFAB2; for ΔR/DRAΔ2 AA: Table 5, Arachidonic acid
How it was run: as §1

[4] = Probe fluorescence ratio response to stearic acid relative to ADIFAB2; details: for DR/DR SA: response relative to ADIFAB2; for ΔR/DRAΔ2 SA: Table 5
How it was run: as §1

[5] = Probe fluorescence ratio response to palmitic acid relative to ADIFAB2; details: for DR/DR PA: response relative to ADIFAB2; for ΔR/DRAΔ2 PA: Table 5
How it was run: as §1

[6] = Probe fluorescence ratio response to palmitoleic acid relative to ADIFAB2; details: for DR/DR POA: response relative to ADIFAB2; for ΔR/DRAΔ2 POA: Table 5
How it was run: as §1

[7] = Probe fluorescence ratio response to linoleic acid relative to ADIFAB2; details: for DR/DR LA: response relative to ADIFAB2; for ΔR/DRAΔ2 LA: Table 5
How it was run: as §1

Molecule	DR/DR OA [1]	DR/DR LNA [2]	DR/DR AA [3]	DR/DR SA [4]	DR/DR PA [5]	DR/DR POA [6]	DR/DR LA [7]	ΔR/DRAΔ2 OA [1]	ΔR/DRAΔ2 LNA [2]	ΔR/DRAΔ2 AA [3]	ΔR/DRAΔ2 SA [4]	ΔR/DRAΔ2 PA [5]	ΔR/DRAΔ2 POA [6]	ΔR/DRAΔ2 LA [7]
14L 18S 31L 73V 117A 72A (protein, listed as Rattus norvegicus, PEPTIDE (1)...(131) wild-type rat intestinal fatty acid binding protein) AFDGTWKVDRNENLEKFSEKMGINVVKRKLLAHDNLKLTITQEGNKFTVKESSNFRNIDVVFELGVDFAYSAVDGTELTGTWTMEGNKLVGKFKRVDNGKELIAVREISGNELIQTATYEGVEAKRIFKKE	0.020	0.673	0.951	0.007	0.028	−0.003	0.534	–	–	–	–	–	–	–
21W 78F 72A (protein, listed as Rattus norvegicus, PEPTIDE (1)...(131) wild-type rat intestinal fatty acid binding protein) AFDGTWKVDRNENYEKFMEKWGINVVKRKLGAHDNLKLTITQEGNKFTVKESSNFRNIDVVFELGVDFAYSAADGTEFTGTWTMEGNKLVGKFKRVDNGKELIAVREISGNELIQTYTYEGVEAKRIFKKE	1.843	1.694	4.264	1.161	0.851	1.217	1.597	–	–	–	–	–	–	–
L2P8F11: FABP probe, substitution A73I vs SEQ ID NO: 2 (protein, listed as Rattus norvegicus, PEPTIDE (1)...(131) wild-type rat intestinal fatty acid binding protein) AFDGTWKVDRNENYEKFMEKMGINVVKRKLGAHDNLKLTITQEGNKFTVKESSNFRNIDVVFELGVDFAYSLIDGTELTGTWTMEGNKLVGKFKRVDNGKELIAVREISGNELIQTYTYEGVEAKRIFKKE	–	–	–	–	–	–	–	0.0	0.1	0.4	0.3	0.0	0.1	0.0
21W 78A 102V 72A (protein, listed as Rattus norvegicus, PEPTIDE (1)...(131) wild-type rat intestinal fatty acid binding protein) AFDGTWKVDRNENYEKFMEKWGINVVKRKLGAHDNLKLTITQEGNKFTVKESSNFRNIDVVFELGVDFAYSAADGTEATGTWTMEGNKLVGKFKRVDNGKEVIAVREISGNELIQTYTYEGVEAKRIFKKE	3.261	1.628	4.923	3.092	1.721	1.585	2.749	–	–	–	–	–	–	–
L2P1E6: FABP probe, substitutions M18L A73L vs SEQ ID NO: 2 (protein, listed as Rattus norvegicus, PEPTIDE (1)...(131) wild-type rat intestinal fatty acid binding protein) AFDGTWKVDRNENYEKFLEKMGINVVKRKLGAHDNLKLTITQEGNKFTVKESSNFRNIDVVFELGVDFAYSLLDGTELTGTWTMEGNKLVGKFKRVDNGKELIAVREISGNELIQTYTYEGVEAKRIFKKE	–	–	–	–	–	–	–	0.1	0.1	0.4	0.2	0.0	0.1	0.1
38Q 106W 117A 72A (protein, listed as Rattus norvegicus, PEPTIDE (1)...(131) wild-type rat intestinal fatty acid binding protein) AFDGTWKVDRNENYEKFMEKMGINVVKRKLGAHDNLKQTITQEGNKFTVKESSNFRNIDVVFELGVDFAYSAADGTELTGTWTMEGNKLVGKFKRVDNGKELIAVWEISGNELIQTATYEGVEAKRIFKKE	0.899	0.795	1.078	0.281	0.444	0.970	0.860	–	–	–	–	–	–	–
L2P4C5: FABP probe, substitutions M18I G31Y vs SEQ ID NO: 2 (protein, listed as Rattus norvegicus, PEPTIDE (1)...(131) wild-type rat intestinal fatty acid binding protein) AFDGTWKVDRNENYEKFIEKMGINVVKRKLYAHDNLKLTITQEGNKFTVKESSNFRNIDVVFELGVDFAYSLADGTELTGTWTMEGNKLVGKFKRVDNGKELIAVREISGNELIQTYTYEGVEAKRIFKKE	–	–	–	–	–	–	–	2.1	2.8	2.2	1.0	1.8	2.6	2.8
18L 73L 72A (protein, listed as Rattus norvegicus, PEPTIDE (1)...(131) wild-type rat intestinal fatty acid binding protein) AFDGTWKVDRNENYEKFLEKMGINVVKRKLGAHDNLKLTITQEGNKFTVKESSNFRNIDVVFELGVDFAYSALDGTELTGTWTMEGNKLVGKFKRVDNGKELIAVREISGNELIQTYTYEGVEAKRIFKKE	0.021	0.090	0.441	0.254	−0.004	0.092	0.019	–	–	–	–	–	–	–
18L 55L 73I 72A (protein, listed as Rattus norvegicus, PEPTIDE (1)...(131) wild-type rat intestinal fatty acid binding protein) AFDGTWKVDRNENYEKFLEKMGINVVKRKLGAHDNLKLTITQEGNKFTVKESSNLRNIDVVFELGVDFAYSAIDGTELTGTWTMEGNKLVGKFKRVDNGKELIAVREISGNELIQTYTYEGVEAKRIFKKE	0.021	−0.044	0.443	0.423	0.007	−0.030	−0.129	–	–	–	–	–	–	–
L2P9E12: FABP probe, substitutions M18L F55L A73I vs SEQ ID NO: 2 (protein, listed as Rattus norvegicus, PEPTIDE (1)...(131) wild-type rat intestinal fatty acid binding protein) AFDGTWKVDRNENYEKFLEKMGINVVKRKLGAHDNLKLTITQEGNKFTVKESSNLRNIDVVFELGVDFAYSLIDGTELTGTWTMEGNKLVGKFKRVDNGKELIAVREISGNELIQTYTYEGVEAKRIFKKE	–	–	–	–	–	–	–	0.6	0.9	0.6	0.4	1.1	0.8	0.7
L2P12G9: FABP probe, substitutions M18L A73V vs SEQ ID NO: 2 (protein, listed as Rattus norvegicus, PEPTIDE (1)...(131) wild-type rat intestinal fatty acid binding protein) AFDGTWKVDRNENYEKFLEKMGINVVKRKLGAHDNLKLTITQEGNKFTVKESSNFRNIDVVFELGVDFAYSLVDGTELTGTWTMEGNKLVGKFKRVDNGKELIAVREISGNELIQTYTYEGVEAKRIFKKE	–	–	–	–	–	–	–	0.0	0.0	0.5	0.4	0.0	0.0	−0.1
21W 78I 72A (protein, listed as Rattus norvegicus, PEPTIDE (1)...(131) wild-type rat intestinal fatty acid binding protein) AFDGTWKVDRNENYEKFMEKWGINVVKRKLGAHDNLKLTITQEGNKFTVKESSNFRNIDVVFELGVDFAYSAADGTEITGTWTMEGNKLVGKFKRVDNGKELIAVREISGNELIQTYTYEGVEAKRIFKKE	4.703	4.024	6.322	3.396	2.759	3.284	4.381	–	–	–	–	–	–	–
14V 18L 73V 117A 72A (protein, listed as Rattus norvegicus, PEPTIDE (1)...(131) wild-type rat intestinal fatty acid binding protein) AFDGTWKVDRNENVEKFLEKMGINVVKRKLGAHDNLKLTITQEGNKFTVKESSNFRNIDVVFELGVDFAYSAVDGTELTGTWTMEGNKLVGKFKRVDNGKELIAVREISGNELIQTATYEGVEAKRIFKKE	0.307	0.624	0.926	0.105	0.249	0.597	0.557	–	–	–	–	–	–	–
73I 72A (protein, listed as Rattus norvegicus, PEPTIDE (1)...(131) wild-type rat intestinal fatty acid binding protein) AFDGTWKVDRNENYEKFMEKMGINVVKRKLGAHDNLKLTITQEGNKFTVKESSNFRNIDVVFELGVDFAYSAIDGTELTGTWTMEGNKLVGKFKRVDNGKELIAVREISGNELIQTYTYEGVEAKRIFKKE	0.045	0.099	0.408	0.242	0.015	0.117	0.039	–	–	–	–	–	–	–
